Data: the supplement of paper PMC10567573

B1: SLC6A17 (parent)
chain: KAVEEELDAEDRPAWNSKLQYILA
B2: CDKN1A (parent)
chain: GRKRRQTSMTDFYHSKRRLIFSKR

Variants of: B1
Assay: protein stability index of a GFP-peptide fusion (GPS, HEK-293T) (PSI 1-6); higher = more stable
Conditions: c terminus: a fixed tail appended
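Also: lentivirally expressed fusions sorted by FACS into six bins by GFP to DsRed ratio, PSI derived from sequencing read proportions per bin multiplied by bin number.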

Protein stability index, by site and new letter:
P13: R 2.44; S 2.27; T 3.06; W 2.88; Y 2.65
A14: D 3.38; E 3.08; F 2.18; G 2.35; H 2.57; I 2.5; K 2.62; L 1.99; M 2.1; N 2.2; P 2.46; Q 2.4; R 2.3; S 4.07; T 3.2; V 2.38; Y 2
W15: A 3.89; C 3.64; D 3.94; E 4.65; F 3.1; G 3.82; H 4.06; I 3.69; K 3.99; L 2.52; M 3.74; N 4.13; P 3.68; Q 4.04; R 3.62; S 3.92; T 3.46; V 2.2; Y 2.77
N16: A 2.25; C 2.08; D 3.45; E 2.81; F 2.14; H 2.83; I 2.05; K 2.52; L 2.06; M 2.37; P 2.75; Q 2.1; R 2.75; S 3.01; T 2.07; V 2.58; W 2.05; Y 2.09
S17: A 2.55; C 1.99; D 3.17; E 4.48; F 2.5; G 2.75; H 2.23; I 1.83; K 2.19; L 1.99; M 2.33; N 3.15; P 2.97; Q 2.32; R 3.4; T 2.25; V 2.46; W 1.82; Y 2.16
K18: A 3.16; C 3.19; D 4; E 3.76; F 2.17; H 2.7; I 2.13; L 1.98; M 2.27; N 4.01; P 3.77; Q 3.22; R 2.69; S 3.07; T 3.05; V 1.64; W 2.53; Y 3.15
L19: A 3.8; C 3.56; D 4.1; E 4.27; F 2.96; H 3.69; I 2.52; K 3.99; M 2.8; N 4.2; P 3.4; Q 3.92; R 3.63; S 2.75; T 3.83; V 2.28; W 2.48; Y 2.52
Q20: A 2.06; C 2.13; D 3.56; E 2.89; F 1.9; G 2.32; H 2.53; I 1.57; K 2.92; L 1.88; M 2.16; N 2.9; P 3.25; R 3.39; S 2.71; T 2.25; V 2.13; W 1.56; Y 2.4
Y21: A 3.99; C 4.37; D 3.92; F 2.9; H 3.16; I 3.09; K 3.67; L 2.83; M 3.4; N 3.42; P 4.58; Q 2.75; R 2.8; S 3.92; V 2.08
I22: A 3.8; C 3.13; D 4.86; E 5.01; F 2.2; G 4.06; H 4.5; K 3.78; L 2.83; M 1.79; N 4.41; P 4.44; R 4.15; T 4.4; V 3.04; W 2.9; Y 3.94
L23: A 3.9; C 3.59; D 4.9; E 4.91; F 3.03; G 3.99; H 3.84; I 2.64; K 3.89; M 2.6; N 4.18; P 3.97; Q 3.82; R 4.42; S 4.23; T 3.91; V 3.17; W 3.19; Y 3.01
A24: C 2.46; D 3.55; E 2.63; F 2.73; G 3.52; H 2.15; I 2.23; K 3.08; L 2.28; M 2.06; N 3.48; P 3.25; R 3.27; S 2.82; T 2.85; V 1.68; W 2.06; Y 2.18

Variants of: B2
Assay: as above
Conditions: c terminus: a fixed tail appended

Protein stability index of substitutions, site by site:
G1: A 2.81; C 3.45; D 3.06; E 3.02; F 2.85; H 3.16; I 2.94; K 3.34; L 2.86; M 2.88; N 2.55; P 3.63; Q 3.03; R 3.87; S 3.84; T 2.06; V 2.06; W 3.87; Y 2.99
R2: A 2.05; C 3.93; D 2.78; E 4.5; F 3.25; G 3.19; H 2.33; K 3.08; L 2.6; M 3.79; N 2.74; S 3.05; T 2.8; V 3.22; W 2.53; Y 2.22
K3: A 3.12; C 3.54; D 3.2; E 2.19; F 2.4; H 3.57; I 2.76; L 3.18; M 2.76; N 2.73; P 2.16; Q 2.98; S 3.96; T 2.5; V 2.83; W 2.56; Y 5.28
R4: A 2.39; C 2.73; D 3.24; E 3.62; G 3.58; H 2.98; K 3.46; M 2.77; N 4.63; P 3.12; S 2.85; T 3.95; W 3.56; Y 3.36
R5: A 2.74; F 2.64; G 2.4; H 3.17; I 3.03; K 2.57; L 3.53; N 2.74; Q 2.87; S 2.44; T 3.64; Y 3.17
Q6: A 2.06; C 3.21; D 2.1; E 2.73; G 2.76; H 3.62; I 2.79; K 2.55; M 2.04; R 2.4; S 2.25; T 3.34; V 2.38; W 2.47; Y 2.67
T7: A 1.97; C 2.87; D 2.1; E 2.22; H 2.67; I 2.38; K 3.09; L 2.79; M 2.6; N 2.48; Q 2.12; S 2.71; W 2.36; Y 2.65
S8: A 2.41; C 3.59; D 2.46; E 2.74; F 3.4; H 4.01; I 2.6; K 3.4; L 3.4; M 2.68; P 1.76; Q 2.69; R 2.72; T 3.3; Y 2.35
M9: A 2.66; C 2.34; D 4.34; E 2.27; F 2.6; G 3.98; H 3.21; I 3.23; K 2.62; L 2.98
